Eight molecules from US11053304 (CENTIVAX, dated 2021) can be followed below.

In general, Kd refers to a measure of binding affinity in units of concentration. A higher Kd goes with weaker binding. In general, koff refers to the first-order rate constant of dissociation. Low readings indicate slow dissociation, high ones fast dissociation. In general, kon refers to the rate constant with which the complex forms. Read a low kon as slow association.

Assay in all cases: SPR, scFv captured via anti-V5, RBD as analyte
(In general: Surface plasmon resonance follows binding to a sensor surface in real time, without labels.)

Test [1] concerns the target T1, SARS-CoV-2 Receptor Binding Domain (RBD) protein (SARS-CoV-2, UniProt P0DTC2 319-541).
The target in test [2] is MERS Receptor Binding Domain (RBD) protein (MERS coronavirus, UniProt K9N5Q8 367-606).
In test [3] the target is T1, SARS-CoV-2 Receptor Binding Domain …. This is another data set of the same source.
In test [4] the target is SARS-CoV-1 Receptor Binding Domain (RBD) protein (SARS-CoV-1, UniProt P59594 306-527).

Where two headings read alike, the source gives them in different places. Bounds are passed on as bounds.

B1: COVID19_P08_F04 (scFv, V domains shown)
VH: EVQLVESGGGLVQPGGSLRLSCAASGFRFDDFGMHWYRQAPGKGLEWVSATSGGGSITYYADSVKGRFTISRDNSKNTLYLQMNSLRAEDTAVYYCVTNMDNSRDYFPHYFHDMDVWGQGTLVTVSS
VL: not shown
In test [1], B1 registered a Kd of 2.04 nM, a dissociation rate constant (koff) of 0.00019 s⁻¹ and a kon of 93000 M⁻¹ s⁻¹. The binding result in test [2] is “no binding (tested: up to 300 nM)”. The Kd in test [3] is less than 50 nM. In addition, in test [4], the binding result is given as “no binding (tested: up to 300 nM)”.

B2: COVID19_P07_D09 (scFv, V domains shown)
VH: EVQLVESGGGLVQPGGSLRLSCAASGFSFSRYGMHWVRQAPGKGLEWVSGISADGGTAYYADSVKGRFTISRDNSKNTLYLQMNSLRAEDTAVYYCVTNMDNSRDYFPHYFHDMDVWGQGTLVTVSS
VL: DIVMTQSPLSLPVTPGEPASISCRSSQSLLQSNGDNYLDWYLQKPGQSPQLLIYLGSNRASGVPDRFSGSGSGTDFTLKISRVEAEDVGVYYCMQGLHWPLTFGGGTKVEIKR
Consider B2, for which the equilibrium dissociation constant (Kd) is 1.8 nM in test [1] and less than 50 nM in test [3]. Also, in test [1], the koff turned out to be 5.7e-05 s⁻¹. This molecule also returned a kon in test [1] of 32500 M⁻¹ s⁻¹. The binding result in test [2] and in test [4] was “no binding (tested: up to 300 nM)” in each case.

B3: COVID19_P07_F02 (scFv, V domains shown)
VH: EVQLVESGGGLVQPGGSLRLSCAASGFAFSNYGMHWIRQAPGKGLEWVSGIDGSGGTAHYADSVKGRFTISRDNSKNTLYLQMNSLRAEDTAVYYCVTNMDNSRDYFPHYFHDMDVWGQGTLVTVSS
VL: not shown
For B3, the Kd in test [1] was 10.1 nM; in test [3], less than 50 nM. This molecule also displayed a koff in test [1] of 0.00018 s⁻¹. This molecule also returned a kon in test [1] of 17800 M⁻¹ s⁻¹. The binding result in test [2] and in test [4] was “no binding (tested: up to 300 nM)” throughout.

B4: COVID19_P19_H07 (scFv, V domains shown)
VH: EVQLVESGGGLVQPGGSLRLSCAASGFTFGTSAVSWVRQAPGKGLEWVSAISGSGGSTYYADSVKGRFTISRDNSKNTLYLQMNSLRAEDTAVYYCVTQRDNSRDYFPHYFHDMDVWGQGTLVTVSS
VL: DIVMTQSPLSLPVTPGEPASISCRSSQSLLYSDGDTYLDWYLQKPGQSPQLLIYLGSIRAPGVPDRFSGSGSGTDFTLKISRVEAEDVGVYYCMQGLETPWTFGGGTKVEIKR
With B4, in test [1], the Kd came out at 37 nM, the koff was found to be 0.00786 s⁻¹ and the kon turned out to be 212000 M⁻¹ s⁻¹. The binding result in test [2] is “no binding (tested: up to 300 nM)”. The same molecule registered a Kd in test [3] of less than 50 nM. The binding result in test [4] is “no binding (tested: up to 300 nM)”.

B5: COVID19_P20_B06 (scFv, V domains shown)
VH: EVQLVESGGGLVQPGGSLRLSCAASGFTFHDYAMHWVRQAPGKGLEWVAVTSYDGNTKYYADSVKGRFTISRDNSKNTLYLQMNSLRAEDTAVYYCVTNLDNSRDYFPHYFHDMDVWGQGTLVTVSS
VL: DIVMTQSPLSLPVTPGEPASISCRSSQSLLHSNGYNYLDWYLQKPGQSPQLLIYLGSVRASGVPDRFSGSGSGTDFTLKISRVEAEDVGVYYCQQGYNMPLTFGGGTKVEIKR
With B5, the Kd in test [1] was 5.1 nM; in test [3], less than 50 nM. This molecule also yielded a koff in test [1] of 0.000439 s⁻¹. Also, in test [1], the kon was 86000 M⁻¹ s⁻¹. Moreover, the binding result in test [2] and in test [4] was “no binding (tested: up to 300 nM)” in each case.

B6: COVID19_P19_C07 (scFv, V domains shown)
VH: EVQLVESGGGLVQPGGSLRLSCAASGFPFSLYGMHWVRQAPGKGLEWVAVITSDGRSKFYADSVKGRFTISRDNSKNTLYLQMNSLRAEDTAVYYCVTNLDNSRDYFPHYFHDMDVWGQGTLVTVSS
VL: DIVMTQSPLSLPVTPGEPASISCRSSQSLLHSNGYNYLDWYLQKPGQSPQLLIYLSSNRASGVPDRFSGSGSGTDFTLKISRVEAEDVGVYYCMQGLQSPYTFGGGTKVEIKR
In test [1], B6 came in with a Kd of 3.6 nM, a koff of 5.7e-05 s⁻¹ and a kon of 16000 M⁻¹ s⁻¹. For the same molecule, the binding result in test [2] is “no binding (tested: up to 300 nM)”. Further, in test [3], the Kd is less than 50 nM. Also, the binding result in test [4] is “no binding (tested: up to 300 nM)”.

B7: COVID19_P08_B12 (scFv, V domains shown)
VH: EVQLVESGGGLVQPGGSLRLSCAASGFSFRSYGMHWVRQAPGKGLEWVAVISSDGRNKFYADSVKGRFTISRDNSKNTLYLQMNSLRAEDTAVYYCVTNFDNSRDYFPHYFHDMDVWGQGTLVTVSS
VL: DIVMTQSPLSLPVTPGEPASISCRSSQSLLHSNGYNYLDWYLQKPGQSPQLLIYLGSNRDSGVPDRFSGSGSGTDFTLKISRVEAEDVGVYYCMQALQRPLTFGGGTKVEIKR
For the molecule B7, the Kd is 3.5 nM in test [1] and less than 50 nM in test [3]. In test [1], the koff came to 5.7e-05 s⁻¹. The kon in test [1] stood at 16000 M⁻¹ s⁻¹. In addition, the binding result in test [2] and in test [4] was “no binding (tested: up to 300 nM)” each time.

B8: COVID19_P07_G02 (scFv, V domains shown)
VH: EVQLVESGGGLVQPGGSLRLSCAASGFRFNTYAMHWVRQAPGKGLEWVAVISSSGRNKFYADSVKGRFTISRDNSKNTLYLQMNSLRAEDTAVYYCVTNMDNSRDYFPHYFHDMDVWGQGTLVTVSS
VL: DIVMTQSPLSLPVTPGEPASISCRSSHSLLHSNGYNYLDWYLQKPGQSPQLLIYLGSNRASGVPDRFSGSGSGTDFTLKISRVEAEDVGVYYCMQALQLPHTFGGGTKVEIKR
In test [1], B8 registered a Kd of 4.8 nM, a koff of 5.7e-05 s⁻¹ and a kon of 11900 M⁻¹ s⁻¹. Further, the binding result in test [2] is listed as “no binding (tested: up to 300 nM)”. In test [3], this molecule gave a Kd of less than 50 nM. Moreover, the binding result in test [4] was “no binding (tested: up to 300 nM)”.
